The nature of the data set: yeast display, Sf9 membrane polyspecificity reagent, FACS + sequencing; frameworks hold sequencing errors. The method, boiled down: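 Galactose induction of a Saccharomyces cerevisiae BJ5465 synthetic nanobody display library ran 36–48 hours. The cells were then stained for 1 hour at 4 °C with 10% biotinylated, detergent-solubilized Sf9 membrane reagent, pulled down on streptavidin microbeads and FACS-sorted into low and high (top ~1%) gates on expression and reagent-binding fluorescence. Labels for polyreactivity follow the gate of origin.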
As for “QVQLVESGGGLVQAGGSLRLSCAASGGTFRPNAMGWYRQAPGKERELVAAITRSGGSTYYADSVKGRFTISRDNAKNTVYLQMNSLKPVDTAVYYCARDLREWGQGTQVTVSS”, the “polyreactivity (PSR sort gate)” value was “low polyreactivity”.
Take “QVQLVESGGGLVQAGGSLRLSCAASGGTFRRYAMGWSRQAPGKERELVAAITRSGTNTYYADSVKGRFTISRDNAKNTVYLQMNSLNPEDTAVYYCAADGFGKYWGQGTQVTVSS”: the “polyreactivity (PSR sort gate)” value is recorded as “high polyreactivity”.
In the case of “QVQLVESGGGLVQAGGSLRLSCAASGGTFRYYAMGWYRQAPGKEREFVAAITSSGGSTYYADSVKGRFTISRDNAKKTVYLQMNRLKPEDTAGYYCATDNPFLWWFRPDQHGMGYWGQGTQVTVSS” it was “low polyreactivity”; in that of “QVQLVESGGGLVQAGGSLRLSCAASGGTFSKNAMGWYRQAPGKERELVADIRSGGSTYYADSVKGRFTISRDNAKNTVYLQMNSLKPEDTAVYYCNADGDVNEYDYWGQGTQVTVSS”, “low polyreactivity”; in that of “QVQLVESGGGLVQAGGSLRLSCAASGGTFSKYAMGWYRQAPGKEREFVAAITVSGGGSYYADSVKGRFTISRDNAKNTVYLQMNSLKPEDTAVYYCAADLAWTASDYWGQGTQVTVSS”, “low polyreactivity”.
As for “QVQLVESGGGLVQAGGSLRLSCAASGGTFSKYAMGWYRQAPGKERELVAAITYSSGSKYYADSVKGRFTISRDNAKNTVYLQMNSLKPEDTADYYCAARSGLYWWRFDYWGQGTQVTVSS”, the “polyreactivity (PSR sort gate)” value is recorded as “high polyreactivity”.
Take “QVQLVESGGGLVQAGGSLRLSCAASGGTFSNYAMGWYIPAPGKERELVAAITSGGGSTYYADSVKGRFTISRDNAKNTVYLQMNSLKPEDTAVYYCAARRSSYGYWGQGTQVTVSS”: the “polyreactivity (PSR sort gate)” value is on record as “high polyreactivity”.
Regarding “QVQLVESGGGLVQAGGSLRLSCAASGGTFSVYGMGWYRPAPGKERDLVAVINGTDGITYYADSVKARVTISRDNAKNTVYLQMNSLKPEDTAVYDCAKDSDFLAYHGLDHWGQGTLVTVSS”, the “polyreactivity (PSR sort gate)” value is “low polyreactivity”.
“QVQLVESGGGLVQAGGSLRLSCAASGGTFSYNAMGWYRQAPGKERELVAAISSRGGSTYYSDSVKGRFTISRDNAKNTDYLQMNSLKPEDTAVYYCNAVRGVWYGSWGQGTQVTVSS”: the “polyreactivity (PSR sort gate)” value is given as “high polyreactivity”.
For “QVQLVESGGGLVQAGGSLRLSCAASGGTFSYYAMGCYRQAPGKERELVASISTDGGSTYYADSVKGRFTISRDNAKNTVYLQMNSLKPEDTAVYYCNARPRGYSDRYGYWGQGTQVTVSS”, the “polyreactivity (PSR sort gate)” value is listed as “high polyreactivity”.
As to “QVQLVESGGGLVQAGGSLRLSCAASGGTFSYYAMGWYRQAPGKERELFASISSGGSTYYADSVKGRFTISRDNAKNTVYLQMNSLKPEDTAVYYCNAEARSRRYRYDYWGQGTQVTVSS”, the “polyreactivity (PSR sort gate)” value is “high polyreactivity”.
For the sequence “QVQLVESGGGLVQAGGSLRLSCAASGGTFTHNAMGWYRQAPGKDWELVAAISRSGGSTSYADSVKGRFTISRYNAKNTVYLQMNSLKPEDTAVYYCADRISRQRSYSRDYWGQGNQVTVSS”, the “polyreactivity (PSR sort gate)” value is “high polyreactivity”.
Turning to “QVQLVESGGGLVQAGGSLRLSCAASGGTFTWYAMGWYRQAPGKERELVAAISSDGSTYYADSVKGRFTISRDNAKNTVYLQMNSLKPEDTAVYYSAAYSSWGGFDYWGQGTQVTVSS”, the “polyreactivity (PSR sort gate)” value is on record as “low polyreactivity”.
As to “QVQLVESGGGLVQAGGSLRLSCAASGGTFVFYAMGWYRQAPGKERELVAAISSAGRTYYADSVKGRFTISRDNAKNTVYFQMNSLKPEDNAVYYCAAVSSQYDGRYYYWGQGTQVTVSS”, the “polyreactivity (PSR sort gate)” value was “high polyreactivity”.
The same measure for “QVQLVESGGGLVQAGGSLRLSCAASGGTFVPYAMGWYRQAPGKERELVAAITIGGSTSYADSVKGRFTISRDNAKNTVYLQMNSLKPEDTAVYYCNARSYPDYIYWSQRYDYDYWGQGTQVTVSS”: “low polyreactivity”.
The same measure for “QVQLVESGGGLVQAGGSLRLSCAASGGTFVRYAMGGYRPAPGKERELVAAISSRGGSTYYADSVKGRFTISRDNAKNTVFLQMNSLKPEDTAVYYCAARPGYYDFYWGQGTQVTVSS”: “high polyreactivity”; for “QVQLVESGGGLVQAGGSLRLSCAASGGTFVYNAMGWNRQAPGKERELVAAISRSGSRTYYADSVKGRFTISRDNAKNTVYLQMNSLKPEDTAVYYCAARGYYPEYNHWGQGSQVTVSS”: “high polyreactivity”.
On to “QVQLVESGGGLVQAGGSLRLSCAASGGTFWYYAMGWYRQAPGKERELVASISRGGSTNYADSVKGRFTISRDNAKNTVYLLMNSLKPEDTAVYYCNAGLRVGPRRYVDYEYDYWGQGTQVTVSS”, for which the “polyreactivity (PSR sort gate)” value is reported as “low polyreactivity”.
“QVQLVESGGGLVQAGGSLRLSCAASGGTFYHYAMGLYRQAPGKERALGAAIRSGARTNYADSVKGRFTISRDNAKNTVYLQMNSLYPEDTAAYSCAAARVRGYVRSGLDYWGQGTQVTVSS”: the “polyreactivity (PSR sort gate)” value is listed as “high polyreactivity”.
In the case of “QVQLVESGGGLVQAGGSLRLSCAASGGTFYIYVMGWYRQAPGKERELVAAITSGDSTNYADSVKGRFTISRDNAKNTVYLQMNSLKPEDTAVYYCATGYWELRYDYWGQGTQVTVSS” it was “low polyreactivity”.
For “QVQLVESGGGLVQAGGSLRLSCAASGGTFYPYAMGWYRQAPGKVRELVAAITSCGSTNYADSVKGRFTISRDNAKKTVYLQMNSLKPEDTAVYYCAAKSSYIRPTNSDDYDYWGQGTQVTVSS”, the “polyreactivity (PSR sort gate)” value is “low polyreactivity”.
The same measure for “QVQLVESGGGLVQAGGSLRLSCAASGGTFYRNAMGWYRQAPGKERELVAAITKRGGSTYYADSVKGRFTISRDNAKNTVYIQINSLKPEDTAVYYCAKDAAPIPGNDSDYWGQGTQVTVSS”: “high polyreactivity”; for “QVQLVESGGGLVQAGGSLRLSCAASGGTFYRSAMGWYRQAPGKERELVAAISTGSSTYYADSVKGRFTISRDNAKNTVYLQINSQKPEDTAVNYCAARYWERYRSFNYWGQGTQVTVSS”: “high polyreactivity”; for “QVQLVESGGGLVQAGGSLRLSCAASGGTFYRYAMGWYRQAPGKEREFVASITQRGGRTYYADSVKGRFTISRDNAKNTVYLQMNSLKPEDTAVYYCAVEYYNYPNSRRYDYWGQGTQVTVSS”: “high polyreactivity”.
In the case of “QVQLVESGGGLVQAGGSLRLSCAASGGTFYVYAMGWYRQAPGKERELVAAISTSGGSTYYADSVKGRFTISRDNAKNTVYLQMNSLKPEDTAVYYCAARRVSFSGHPRYGYWGQGTQVTVSS” it was “high polyreactivity”.
On to “QVQLVESGGGLVQAGGSLRLSCAASGGTFYYNAMGWYRQAPGKERELVAAITSGDRTYYADSVKGRFTISRDIAKNTVYLQMNSLKPEDTAVSYCARAGKTRAGYDYWGQGTQVTVSS”, for which the “polyreactivity (PSR sort gate)” value is recorded as “high polyreactivity”.
With “QVQLVESGGGLVQAGGSLRLSCAASGGTITRYAMGWYRQAPGKERELVAAISSSGGSTYYADSVKGRFTISRDNAKNTVYLQMNSLKPEDTAVYYCAAEGYTLWYWLEFEYWGQGTQVTVSS”, the “polyreactivity (PSR sort gate)” value is reported as “high polyreactivity”.
On to “QVQLVESGGGLVQAGGSLRLSCAASGGTITSYAMGWYRQAPGKERELVAAITRSGGSTYYADSVKGRFTISRDNAKNTVYLQMNSLKPEDTAVYYCAARYSTYPWYNSWGQGTQVTVSS”, for which the “polyreactivity (PSR sort gate)” value is on record as “high polyreactivity”.
As to “QVQLVESGGGLVQAGGSLRLSCAASGGTIVWNAMGWYRQAPGKERELVAAITWSGGSTYYADSVKGRFTISRDNAKNTVYLPMNSLQPEATAVYYCNADRFGRAHVYPEFDYWGQGTQVTVSS”, the “polyreactivity (PSR sort gate)” value is listed as “low polyreactivity”.
In the case of “QVQLVESGGGLVQAGGSLRLSCAASGGTLATYAMGWYRQAPGKERELVARIRIGGSTNYADSVKGRFTISRDNAKNTVYLQMNSLKPEDTAVYYCNKYSVLSRQRYSHPVNYDSWGQGTQVTVSS” it was “high polyreactivity”.
In the case of “QVQLVESGGGLVQAGGSLRLSCAASGGTLFTNAMGWYRQAPGKERELVAAISWRGGRTYYADSVKGRFTISRDNAKNTVYLQMNSLKPEDSAVYYCAADVSAVQGYYYWGQGTQVTVSS”, the “polyreactivity (PSR sort gate)” value is listed as “low polyreactivity”.
Take “QVQLVESGGGLVQAGGSLRLSCAASGGTLRRYAMGWYRQAPGKERELVAAIIDRSGSTSYADSVKGRFTISRDNAKNTVYLQMNSLKPEDTAVYYCAARTYRTRYYYWGQGTQVTVSS”: the “polyreactivity (PSR sort gate)” value is “high polyreactivity”.
With “QVQLVESGGGLVQAGGSLRLSCAASGGTLRYYVMGWYRQAPGKERELVAAISWSGDSTYYADSVKGRFTISRDNAKNTVYLEMNSLKPDDTAVYYCAATYYVTYYYGQANHGYDYWGPGTQVTVSS”, the “polyreactivity (PSR sort gate)” value is on record as “low polyreactivity”.
In the case of “QVQLVESGGGLVQAGGSLRLSCAASGGTLWGYGMGWYRQAPGKEREFVAAITWSGGNTNYADSVKGRFTISRDNAMNTVYLLMNSLKPEDTAVYYCNARVYYKRKYDYWGQGTQVTVSS” it was “high polyreactivity”; in that of “QVQLVESGGGLVQAGGSLRLSCAASGGTSQGNAMGWYRQAPGKERELVAAISWSGGTTYYADSVKGRFTISRDNAKNTVYLQMNSLKPEDTAVYYCAAYRYAGRYVPYGDYDYWGQGTQVTVSS”, “low polyreactivity”.
As to “QVQLVESGGGLVQAGGSLRLSCAASGGTVWYYTMGWYRQAPGKERELVARITGGSRTNYADSVNGRFTISRDNAKNTVYLQMNSLKPEDTAVYYCARTSWSGVSYDYWGQGTQVTVSS”, the “polyreactivity (PSR sort gate)” value is reported as “high polyreactivity”.
The same measure for “QVQLVESGGGLVQAGGSLRLSCAASGGTYELYVMGWYRQAPGKERELVAAISVNGDDTYYADSVKGRITISRDNAKNTVYLQMNSLKPEDTAVYYCAAEVLGSYYLTGYDYWGQGTQVTVSS”: “high polyreactivity”; for “QVQLVESGGGLVQAGGSLRLSCAASGHFFFYYPLGWYRQAPGKERELVARFTLSGTSTYYADSVKGRFTISRDNAKNSVYLQMNSLKPEDTAVYYCAAPYFTYGQDDDDYWRQGTQVTVSS”: “low polyreactivity”; for “QVQLVESGGGLVQAGGSLRLSCAASGHFFFYYTMGWYRPAPGKERELVAGITIGGSTNYADSVKGRFTISRDNAKHTVYVQMNSLKPEDTPVYYCNVVKYVYIYSYWEYYYCGQGTQVTVSS”: “low polyreactivity”.
In the case of “QVQLVESGGGLVQAGGSLRLSCAASGHIFIRYAMGWYRQAPGKDRELVAASTGSGGSTYYADSVKGRFTISRDYAKNTVYLQMNSLKPEDTAVYYCAARTSKKYVPYDYWGQGTQVTVSS” it was “high polyreactivity”.
Take “QVQLVESGGGLVQAGGSLRLSCAASGHIFVNKAMGWYRQAPGKEREFVAAITSNGARTYYADSVKGRFTISRDNAKNTVYLQMNSLKPEDTAVYYCAKRFARRSQRYDYWGQGTQVTVSS”: the “polyreactivity (PSR sort gate)” value was “high polyreactivity”.

The values above are taken from the nanobody polyreactivity screen of Harvey et al. (2022).
